Data taken from paper PMC9352546, “The Casein kinase 1α agonist pyrvinium attenuates Wnt-mediated CK1α degradation via interaction with the E3 ubiquitin ligase component Cereblon” (The Journal of Biological Chemistry, 2022).

Molecular target: T1, FLAG-tagged Cereblon (CRBN) (human, UniProt Q96SW2-2 1-441)
T1 construct: also called FLAG-CRBN; Wnt-modulated CRBN; source: HEK293T, transfected (pcDNA3.1(+)), cells treated with PBS or Wnt3a, immunopurified from lysate on beads
Test: pull-down; FLAG-CRBN immunopurified from PBS- or Wnt3a-treated (4 h) HEK293T cells, held on BSA-blocked beads; GST-CK1α preincubated with DMSO or pyrvinium at 4 °C for 10 min, then incubated with the beads in binding buffer at 4 °C for 1 h; one 5-min wash; elution in Laemmli buffer, immunoblot
Conditions: both partners purified

T1 sequence (Q96SW2 other isoform, or with tags, fused parts or gaps): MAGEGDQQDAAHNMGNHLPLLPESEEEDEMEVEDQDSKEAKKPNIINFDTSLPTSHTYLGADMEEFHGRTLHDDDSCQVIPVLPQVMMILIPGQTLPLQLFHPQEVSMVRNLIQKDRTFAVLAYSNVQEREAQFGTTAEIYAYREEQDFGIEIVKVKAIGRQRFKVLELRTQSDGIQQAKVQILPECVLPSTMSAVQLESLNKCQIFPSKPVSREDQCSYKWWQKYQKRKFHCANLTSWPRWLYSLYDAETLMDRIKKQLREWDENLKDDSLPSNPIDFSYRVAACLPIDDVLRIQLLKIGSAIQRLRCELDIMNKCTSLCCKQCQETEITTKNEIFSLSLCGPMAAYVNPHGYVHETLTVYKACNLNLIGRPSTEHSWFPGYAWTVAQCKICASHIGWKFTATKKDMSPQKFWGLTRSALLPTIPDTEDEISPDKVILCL

binding result: binds
B1: Recombinant human glutathione-S-transferase (GST)-CK1α protein (natural protein, UniProt P48729-1 1-337, looked up)
chain: MASSSGSKAEFIVGGKYKLVRKIGSGSFGDIYLAINITNGEEVAVKLESQKARHPQLLYESKLYKILQGGVGIPHIRWYGQEKDYNVLVMDLLGPSLEDLFNFCSRRFTMKTVLMLADQMISRIEYVHTKNFIHRDIKPDNFLMGIGRHCNKLFLIDFGLAKKYRDNRTRQHIPYREDKNLTGTARYASINAHLGIEQSRRDDMESLGYVLMYFNRTSLPWQGLKAATKKQKYEKISEKKMSTPVEVLCKGFPAEFAMYLNYCRGLRFEEAPDYMYLRQLFRILFRTLNHQYDYTFDWTMLKQKAAQQAASSSGQGQQAQTPTGKQTDKTKSNMKGF
notes: Preincubated with DMSO or pyrvinium before it was added to the FLAG-CRBN beads; also called GST-tagged CK1α; recombinant CK1α; source: Sf9 insect cells, purified (GenScript)
